Key:
[1] = target: CH5-1 (nH5 of A/VN/1203/04 misfolded by three heat cycles 25-85 C)
[2] = target: CH5-2 (nH5 of A/VN/1203/04 heat cycled at pH 2)
[3] = target: CH5-3 (nH5 of A/VN/1203/04 heat cycled at pH 12)
[4] = target: CH5-4 (nH5 of A/VN/1203/04 incubated with 100 mM glucose-6-phosphate for 67 h at 80 C)
[5] = target: T1, dOVA-1 (ovalbumin misfolded by HCl treatment, 40 min 37 C, neutralized), P01012
T1 chain: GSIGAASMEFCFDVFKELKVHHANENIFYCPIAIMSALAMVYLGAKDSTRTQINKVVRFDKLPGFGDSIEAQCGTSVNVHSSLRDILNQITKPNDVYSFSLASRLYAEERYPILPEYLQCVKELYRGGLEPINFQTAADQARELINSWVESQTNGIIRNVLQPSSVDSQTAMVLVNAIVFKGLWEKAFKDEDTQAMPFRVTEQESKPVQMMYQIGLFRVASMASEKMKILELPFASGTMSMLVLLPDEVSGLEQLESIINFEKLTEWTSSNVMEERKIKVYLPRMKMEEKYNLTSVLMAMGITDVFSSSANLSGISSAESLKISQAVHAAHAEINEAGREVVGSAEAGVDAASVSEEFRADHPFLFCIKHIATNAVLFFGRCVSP

[6] = target: T2, dOVA-2 (ovalbumin misfolded by five heat cycles 30 to 85 C), P01012
T2 chain: T1 chain

[7] = target: T3, dOVA-3 (ovalbumin misfolded by about 16 h at 75 C), P01012
T3 chain: T1 chain

[8] = target: nH5 (non-treated H5 of H5N1 strain A/Vietnam/1203/04, Protein Sciences, NaCl adjusted to 171 mM)
[9] = target: T4, nOVA (non-treated ovalbumin, 1 mg/ml in PBS), P01012
T4 chain: T1 chain

B1: tissue type plasminogen activator (tPA) (protein)
chain: SYQVICRDEKTQMIYQQHQSWLRPVLRSNRVEYCWCNSGRAQCHSVPVKSCSEPRCFNGGTCQQALYFSDFVCQCPEGFAGKCCEIDTRATCYEDQGISYRGTWSTAESGAECTNWNSSALAQKPYSGRRPDAIRLGLGNHNYCRNPDRDSKPWCYVFKAGKYSSEFCSTPACSEGNSDCYFGNGSAYRGTHSLTESGASCLPWNSMILIGKVYTAQNPSAQALGLGKHNYCRNPDGDAKPWCHVLKNRRLTWEYCDVPSCSTCGLRQYSQPQFRIKGGLFADIASHPWQAAIFAKHRRSPGERFLCGGILISSCWILSAAHCFQERFPPHHLTVILGRTYRVVPGEEEQKFEVEKYIVHKEFDDDTYDNDIALLQLKSDSSRCAQESSVVRTVCLPPADLQLPDWTECELSGYGKHEALSPFYSERLKEAHVRLYPSSRCTSQHLLNRTVTDNMLCAGDTRSGGPQANLHDACQGDSGGPLVCLNDGRMTLVGIISWGLGCGQKDVPGVYTKVTNYLDWIRDNMRP
Question: What does the source list for B1?
Answer: tPA mediated plasminogen activation assay [1]: CH5-1 (50% of standard); tPA mediated plasminogen activation assay [2]: CH5-2 (150% of standard); tPA mediated plasminogen activation assay [3]: CH5-3 (200% of standard); tPA mediated plasminogen activation assay [4]: CH5-4 (37% of standard); tPA activation potency, Activation at 10 ug/mL (% of reference) [5]: 97.4; tPA activation potency, Activation at 25 ug/mL (% of reference) [5]: 136; tPA activation potency (tPA-mediated plasminogen activation, chromogenic); reference dOVA-2 at 80 ug/mL, column Activation at 10 ug/mL (% of reference) [6]: 100; tPA activation potency (tPA-mediated plasminogen activation, chromogenic); reference dOVA-2 at 80 ug/mL, column Activation at 25 ug/mL (% of reference) [6]: 100; tPA activation potency, Activation at 10 ug/mL (% of reference) [6]: 107; tPA activation potency, Activation at 25 ug/mL (% of reference) [6]: 107; tPA/Plg activating potential, cross-beta ovalbumin standard at 10 ug/ml [6]: at 10 and 50 ug/ml, tPA/plg activation is 100% and 85%, respectively; tPA/Plg activating potential, cross-beta ovalbumin standard at 30 ug/ml [6]: The activating potential of cross-beta ovalbumin standard at 30 ug/ml is set to 100%; tPA/Plg activating potential, cross-beta ovalbumin standard at 50 ug/ml [6]: at 10 and 50 ug/ml, tPA/plg activation is 100% and 85%, respectively; tPA activation potency, Activation at 10 ug/mL (% of reference) [7]: 60.9; tPA activation potency, Activation at 25 ug/mL (% of reference) [7]: 79; tPA mediated plasminogen activation assay [8]: nH5 (140% of standard); tPA activation potency, Activation at 10 ug/mL (% of reference) [9]: 48.8; tPA activation potency, Activation at 25 ug/mL (% of reference) [9]: 48.1

Reference: patent US20090191228
